Test results reported in PMC10847457 (Cell Discovery, 2024).

B1: PW5-535 (antibody, V domains shown)
VH: EVRLVESGGGLVQPGGSLRLSCAASGFTFRNYDIHWVRQTTGKGLEWVSAVGTSGDTYYLDSVKGRFTISREDAKKSVYLQMNSLRAGDTAMYYCVRGDASPDNIYYYMDVWGTGTRVIVSS
VL: DIQVTQSPSPLSASVGDRVTITCRASQTIGKYLNWYHQIPGKAPKLLISAASTLHSGVPSRFSGRGSGTDFTLTISSLQPEDFGTYYCQQSYSSPPWTFGQGTKVEIK
B2: PW5-5 (antibody, V domains shown)
VH: QVQLVQSGAEVKKPGASVKVSCKTSGYTFTDHYMYWVRQAPGQGLEWMGVINPDAGSVTYAQKFQGRVTMTSDTSTSTVYMELSSLRSEDTAVYYCARDLFFIPAANSFDYWGQGTLVTVSS
VL: EIVLTQSPATLSLSPGERATLSCRASQSVSSYLAWYQQKPGQAPRLLIYDATNRATGIPARFSGSGSGTDFTLTISSLEPEDFAVYYCQHRSNWPRMFTFGQGTKLEIK
notes: also called PW5-5 IgG; IgG PW5-5

Molecular target: MERS-CoV S trimer (stabilized soluble S2P) (MERS-CoV, strain not named; stand-in …, UniProt K9N5Q8, stabilised)
Assay: ELISA
Conditions: both partners purified

Binder	binding result
B1	binds
B2	binds
